The results in this text go back to the supplement of paper PMC5998384.

Data set [1] has as its system HeLa Kyoto. Put plainly: melting temperature (median over replicates), in situ; higher = more thermally stable.
The test system of data set [2] is HeLa Kyoto. Put plainly: solubility in G1/S (NP-40 vs SDS abundance) (log2 ratio); higher = more soluble. The following applies: cell cycle stage: G1/S.
Data set [3] deals with HeLa Kyoto. Description: thermal stability score vs G1/S (z-score of summed log2 fold changes over temperatures); higher = more thermally stable than in G1/S.
In data set [4] the test system is HeLa Kyoto. Put plainly: solubility change mitosis vs G1/S (difference of NP-40 vs SDS log2 ratios) (log2 ratio difference); higher = more soluble in mitosis.
Setting [5] is: cell cycle stage: early G1 (4.5 h after nocodazole release).
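Wherever melting temperature (median over replicates), in situ is given: HeLa Kyoto cells synchronized by double thymidine or nocodazole block, proteins quantified by TMT10plex mass spectrometry, three independent biological replicates.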
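Wherever solubility change mitosis vs G1/S (difference of NP-40 vs SDS log2 ratios) is given: synchronized HeLa Kyoto cells (double thymidine block for G1/S, nocodazole release for mitosis), protein amounts in NP-40 versus SDS lysates quantified by mass spectrometry, three biological replicates.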
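Wherever solubility in G1/S (NP-40 vs SDS abundance) is given: HeLa Kyoto cells arrested at G1/S by double thymidine block, proteins quantified by TMT10plex mass spectrometry in mild NP-40 versus SDS extracts, three biological replicates.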
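Wherever thermal stability score vs G1/S (z-score of summed log2 fold changes over temperatures) is given: synchronized HeLa Kyoto cells, proteins quantified by TMT10plex mass spectrometry, three biological replicates, mitosis taken 0.5 h after nocodazole release, G1/S directly after double thymidine block.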

Turning to “MNQKLLKLENLLRFHTIYRQLHSLCQRRALRQWRHGFSSAYPVWTAQLCAWPWPTDVLTGAALSQYRLLVTKKEEGPWKSQLSSTKSKKVVEVWIGMTIEELARAMEKNTDYVYEALLNTDIDIDSLEADSHLDEVWIKEVITKAGMKLKWSKLKQDKVRKNKDAVRRPQADPALLTPRSPVVTIMGHVDHGKTTLLDKFRKTQVAAVETGGITQHIGAFLVSLPSGEKITFLDTPGHAAFSAMRARGAQVTDIVVLVVAADDGVMKQTVESIQHAKDAQVPIILAVNKCDKAEADPEKVKKELLAYDVVCEDYGGDVQAVPVSALTGDNLMALAEATVALAEMLELKADPNGPVEGTVIESFTDKGRGLVTTAIIQRGTLRKGSVLVAGKCWAKVRLMFDENGKTIDEAYPSMPVGITGWRDLPSAGEEILEVESEPRAREVVDWRKYEQEQEKGQEDLKIIEEKRKEHKEAHQKAREKYGHLLWKKRSILRFLERKEQIPLKPKEKRERDSNVLSVIIKGDVDGSVEAILNIIDTYDASHECELELVHFGVGDVSANDVNLAETFDGVIYGFNVNAGNVIQQSAAKKGVKIKLHKIIYRLVEDLQEELSSRLPCAVEEHPVGEASILATFSVTEGKKKVPVAGCRVQKGQLEKQKKFKLTRNGHVIWKGSLTSLKHHKDDISIVKTGMDCGLSLDEDNMEFQVGDRIVCYEEKQIQAKTSWDPGF [MTIF2]”, the melting temperature in the data set on HeLa Kyoto [1] (cell cycle stage: G1/S) worked out at 49.7 °C; with HeLa Kyoto [1] (cell cycle stage: mitosis) it was 49.1 °C. In addition, the “solubility in G1/S (log2)” value in the data set with HeLa Kyoto [2] is -0.146. Moreover, the values for the thermal stability score in the data set with HeLa Kyoto [3] (setting [5]) and in the data set on HeLa Kyoto [3] (cell cycle stage: mitosis) were -0.325 and 0.122, respectively. Besides, in the data set with HeLa Kyoto [4], the “solubility change mitosis (log2)” value was -0.0734.

“MNRSHRHGAGSGCLGTMEVKSKFGAEFRRFSLERSKPGKFEEFYGLLQHVHKIPNVDVLVGYADIHGDLLPINNDDNYHKAVSTANPLLRIFIQKKEEADYSAFGTDTLIKKKNVLTNVLRPDNHRKKPHIVISMPQDFRPVSSIIDVDILPETHRRVRLYKYGTEKPLGFYIRDGSSVRVTPHGLEKVPGIFISRLVPGGLAQSTGLLAVNDEVLEVNGIEVSGKSLDQVTDMMIANSRNLIITVRPANQRNNVVRNSRTSGSSGQSTDNSLLGYPQQIEPSFEPEDEDSEEDDIIIEDNGVPQQIPKAVPNTESLESLTQIELSFESGQNGFIPSNEVSLAAIASSSNTEFETHAPDQKLLEEDGTIITL [PARD6B]” registered a melting temperature with HeLa Kyoto [1] (cell cycle stage: G1/S) of 51 °C. Further, the “solubility in G1/S (log2)” value with HeLa Kyoto [2] was -0.226. The thermal stability score with HeLa Kyoto [3] (setting [5]) is -0.366; in the data set on HeLa Kyoto [3] (cell cycle stage: mitosis), -0.685. In addition, the “solubility change mitosis (log2)” value in the data set with HeLa Kyoto [4] was found to be 0.0857.

Take “MNVNQSVPPVPPFGQPQPIYPGYHQSSYGGQSGSTAPAIPYGAYNGPVPGYQQTPPQGMSRAPPSSGAPPASTAQAPCGQAAYGQFGQGDVQNGPSSTVQMQRLPGSQPFGSPLAPVGNQPPVLQPYGPPPTSAQVATQLSGMQISGAVAPAPPSSGLGFGPPTSLASASGSFPNSGLYGSYPQGQAPPLSQAQGHPGIQTPQRSAPSQASSFTPPASGGPRLPSMTGPLLPGQSFGGPSVSQPNHVSSPPQALPPGTQMTGPLGPLPPMHSPQQPGYQPQQNGSFGPARGPQSNYGGPYPAAPTFGSQPGPPQPLPPKRLDPDAIPSPIQVIEDDRNNRGTEPFVTGVRGQVPPLVTTNFLVKDQGNASPRYIRCTSYNIPCTSDMAKQAQVPLAAVIKPLARLPPEEASPYVVDHGESGPLRCNRCKAYMCPFMQFIEGGRRFQCCFCSCINDVPPQYFQHLDHTGKRVDAYDRPELSLGSYEFLATVDYCKNNKFPSPPAFIFMIDVSYNAIRTGLVRLLCEELKSLLDFLPREGGAEESAIRVGFVTYNKVLHFYNVKSSLAQPQMMVVSDVADMFVPLLDGFLVNVNESRAVITSLLDQIPEMFADTRETETVFVPVIQAGMEALKAAECAGKLFLFHTSLPIAEAPGKLKNRDDRKLINTDKEKTLFQPQTGAYQTLAKECVAQGCCVDLFLFPNQYVDVATLSVVPQLTGGSVYKYASFQVENDQERFLSDLRRDVQKVVGFDAVMRVRTSTGIRAVDFFGAFYMSNTTDVELAGLDGDKTVTVEFKHDDRLNEESGALLQCALLYTSCAGQRRLRIHNLALNCCTQLADLYRNCETDTLINYMAKFAYRGVLNSPVKAVRDTLITQCAQILACYRKNCASPSSAGQLILPECMKLLPVYLNCVLKSDVLQPGAEVTTDDRAYVRQLVTSMDVTETNVFFYPRLLPLTKSPVESTTEPPAVRASEERLSNGDIYLLENGLNLFLWVGASVQQGVVQSLFSVSSFSQITSGLSVLPVLDNPLSKKVRGLIDSLRAQRSRYMKLTVVKQEDKMEMLFKHFLVEDKSLSGGASYVDFLCHMHKEIRQLLS [SEC24C]”: the melting temperature in the data set on HeLa Kyoto [1] (cell cycle stage: G1/S) came out at 50.6 °C; in the data set on HeLa Kyoto [1] (cell cycle stage: mitosis) it was 50.3 °C. Besides, the “solubility in G1/S (log2)” value in the data set on HeLa Kyoto [2] came to 0.0263. In addition, the thermal stability score in the data set with HeLa Kyoto [3] (setting [5]) is 1.19; in the data set on HeLa Kyoto [3] (cell cycle stage: mitosis) it was 1.53. Also, the “solubility change mitosis (log2)” value with HeLa Kyoto [4] was -0.121.

Consider “MNVVFAVKQYISKMIEDSGPGMKVLLMDKETTGIVSMVYTQSEILQKEVYLFERIDSQNREIMKHLKAICFLRPTKENVDYIIQELRRPKYTIYFIYFSNVISKSDVKSLAEADEQEVVAEVQEFYGDYIAVNPHLFSLNILGCCQGRNWDPAQLSRTTQGLTALLLSLKKCPMIRYQLSSEAAKRLAECVKQVITKEYELFEFRRTEVPPLLLILDRCDDAITPLLNQWTYQAMVHELLGINNNRIDLSRVPGISKDLREVVLSAENDEFYANNMYLNFAEIGSNIKNLMEDFQKKKPKEQQKLESIADMKAFVENYPQFKKMSGTVSKHVTVVGELSRLVSERNLLEVSEVEQELACQNDHSSALQNIKRLLQNPKVTEFDAARLVMLYALHYERHSSNSLPGLMMDLRNKGVSEKYRKLVSAVVEYGGKRVRGSDLFSPKDAVAITKQFLKGLKGVENVYTQHQPFLHETLDHLIKGRLKENLYPYLGPSTLRDRPQDIIVFVIGGATYEEALTVYNLNRTTPGVRIVLGGTTVHNTKSFLEEVLASGLHSRSKESSQVTSRSASRR [VPS45]”, for which the melting temperature in the data set with HeLa Kyoto [1] (cell cycle stage: G1/S) was 49.6 °C; in the data set on HeLa Kyoto [1] (cell cycle stage: mitosis), 49.9 °C. In addition, the “solubility in G1/S (log2)” value in the data set with HeLa Kyoto [2] stood at 0.0246. Besides, the figures for the thermal stability score with HeLa Kyoto [3] (setting [5]) and in the data set with HeLa Kyoto [3] (cell cycle stage: mitosis) were 0.581 and 1.21, respectively. For the same sequence, the “solubility change mitosis (log2)” value in the data set with HeLa Kyoto [4] was -0.166.

Consider “MNWELLLWLLVLCALLLLLVQLLRFLRADGDLTLLWAEWQGRRPEWELTDMVVWVTGASSGIGEELAYQLSKLGVSLVLSARRVHELERVKRRCLENGNLKEKDILVLPLDLTDTGSHEAATKAVLQEFGRIDILVNNGGMSQRSLCMDTSLDVYRKLIELNYLGTVSLTKCVLPHMIERKQGKIVTVNSILGIISVPLSIGYCASKHALRGFFNGLRTELATYPGIIVSNICPGPVQSNIVENSLAGEVTKTIGNNGDQSHKMTTSRCVRLMLISMANDLKEVWISEQPFLLVTYLWQYMPTWAWWITNKMGKKRIENFKSGVDADSSYFKIFKTKHD [DHRS7]”, for which the melting temperature with HeLa Kyoto [1] (cell cycle stage: G1/S) and in the data set with HeLa Kyoto [1] (cell cycle stage: mitosis) was 56.6 °C throughout. For the same sequence, the “solubility in G1/S (log2)” value with HeLa Kyoto [2] is -0.297. In addition, the thermal stability score in the data set on HeLa Kyoto [3] (setting [5]) was -1.54; with HeLa Kyoto [3] (cell cycle stage: mitosis), -1.34. In addition, in the data set on HeLa Kyoto [4], the “solubility change mitosis (log2)” value is -0.0912.
